B1: anti-PD-1 antibody clone EH12.2H7 (antibody, from another filing, IgG1, V domains shown)
VH: QVQLQQSGAELAKPGASVQMSCKASGYSFTSSWIHWVKQRPGQGLEWIGYIYPSTGFTEYNQKFKDKATLTADKSSSTAYMQLSSLTSEDSAVYYCARWRDSSGYHAMDYWGQGTSVTVSS
VL: DIVLTQSPASLTVSLGQRATISCRASQSVSTSGYSYMHWYQQKPGQPPKLLIKFGSNLESGIPARFSGSGSGTDFTLNIHPVEEEDTATYYCQHSWEIPYTFGGGTKLEIK

Experiments:
[1] = target: PD-1 (programmed cell death 1; CD279) on tumor infiltrating lymphocytes (human) (UniProt Q15116); experiment: positive magnetic selection of TIL with M1H4-coupled microbeads
UniProt Q15116, sequence (Q15116 25-288): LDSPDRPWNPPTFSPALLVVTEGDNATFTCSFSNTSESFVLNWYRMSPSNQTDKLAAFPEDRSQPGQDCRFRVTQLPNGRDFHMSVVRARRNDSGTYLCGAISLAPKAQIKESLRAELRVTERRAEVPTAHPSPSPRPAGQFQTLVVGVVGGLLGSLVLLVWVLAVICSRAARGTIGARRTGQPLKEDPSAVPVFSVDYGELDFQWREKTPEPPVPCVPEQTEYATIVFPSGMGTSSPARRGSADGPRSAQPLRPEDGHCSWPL

[2] = target: PD-1 (programmed cell death 1; CD279) on tumor infiltrating lymphocytes (human) (UniProt Q15116); experiment: flow cytometry re-analysis of cells sorted on EH12.2H7 staining, tumour OV8074
[3] = target: PD-1 (programmed cell death 1; CD279) on tumor infiltrating lymphocytes (human) (UniProt Q15116); experiment: flow cytometry, tumour digest M1156 stained with anti-PD-1 clone EH12.2H7; percent of CD3+ cells
[4] = target: PD-1 (programmed cell death 1; CD279) on tumor infiltrating lymphocytes (human) (UniProt Q15116); experiment: flow cytometry, tumour digest H3046 stained with anti-PD-1 clone EH12.2H7; percent of CD3+ cells
[5] = target: PD-1 (programmed cell death 1; CD279) on tumor infiltrating lymphocytes (human) (UniProt Q15116); experiment: flow cytometry re-analysis of cells sorted on EH12.2H7 staining, tumour M1156
[6] = target: PD-1 (programmed cell death 1; CD279) on tumor infiltrating lymphocytes (human) (UniProt Q15116); experiment: positive magnetic selection of REP TIL with EH12.2H7-coupled microbeads; sorted cells stained with secondary mIgG1-PE and aCD3 FITC
[7] = target: PD-1 (programmed cell death 1; CD279) on tumor infiltrating lymphocytes (human) (UniProt Q15116); experiment: flow cytometry, tumour digest OV8074 stained with anti-PD-1 clone EH12.2H7; percent of CD3+ cells

| Molecule | purity of PD-1+ TIL after magnetic selection [1] [%] | Post-sort Purity % PD-1+ (of CD3+) [2] [%] | Pre-sort % PD-1+ (of CD3+) [3] [%] | Pre-sort % PD-1+ (of CD3+) [4] [%] | Post-sort Purity % PD-1+ (of CD3+) [5] [%] | purity of PD-1+ TIL after magnetic selection [6] [%] | Pre-sort % PD-1+ (of CD3+) [7] [%] |
| --- | --- | --- | --- | --- | --- | --- | --- |
| CD279 (PD-1) Monoclonal Antibody (Clone-MIH4), eBioscience | > 85 |  |  |  |  |  |  |
| B1 |  | 98 | 93 | 13 | 100 | > 85 | 70 |
